Target: hepatitis C virus in patient serum
Assay: immobilized adsorbent shaken with HCV patient serum 37 C 2 h; HCV RNA in supernatant against saline control

Row | Substance | Adsorption rate (%)
1 | peptide having the amino acid sequence of 57 residues in the C3 domain of protein G with cysteine ad | 28
2 | protein G (Pharmacia LKB) (from UniProt P19909 303-497) | 82

Reference: patent publication US20040006214A1
